Target: N-terminally MBP-fused and C-terminally mCherry-fused C-terminal intracellular region of Lrp5 (zebrafish)
Test: bead binding assay read by EGFP fluorescence microscopy

- EGFP signal on beads: 5.3
Substance: N-terminally GST-fused and C-terminally EGFP-fused RBP1a (natural protein)

Reference: publication PMC7683268
